Experimental data from PMC7065271 (Chemico-biological interactions, 2020).

Molecular target: the molecule itself
Assay: SEC

B1: Torpedo californica acetylcholinesterase tetramer (enzyme, UniProt P04058-2 22-596, looked up)
chain: DDHSELLVNTKSGKVMGTRVPVLSSHISAFLGIPFAEPPVGNMRFRRPEPKKPWSGVWNASTYPNNCQQYVDEQFPGFSGSEMWNPNREMSEDCLYLNIWVPSPRPKSTTVMVWIYGGGFYSGSSTLDVYNGKYLAYTEEVVLVSLSYRVGAFGFLALHGSQEAPGNVGLLDQRMALQWVHDNIQFFGGDPKTVTIFGESAGGASVGMHILSPGSRDLFRRAILQSGSPNCPWASVSVAEGRRRAVELGRNLNCNLNSDEELIHCLREKKPQELIDVEWNVLPFDSIFRFSFVPVIDGEFFPTSLESMLNSGNFKKTQILLGVNKDEGSFFLLYGAPGFSKDSESKISREDFMSGVKLSVPHANDLGLDAVTLQYTDWMDDNNGIKNRDGLDDIVGDHNVICPLMHFVNKYTKFGNGTYLYFFNHRASNLVWPEWMGVIHGYEIEFVFGLPLVKELNYTAEEEALSRRIMHYWATFAKTGNPNEPHSQESKWPLFTTKEQKFIDLNTEPMKVHQRLRVQMCVFWNQFLPKLLNATETIDEAERQWKTEFHRWSSYMMHWKNQFDHYSRHESCAEL
  stoichiometry N: 4
